Results published in article doi:10.1101/2024.05.31.596772.

Target: microtubules (pig (purified from porcine brain))
Experiment: co-sedimentation

Chain of CKK dimer (mRFP1-FKBP-CKK and mEGFP-FRB-CKK with rapamycin) (Q80VC9 whole entry, looked up, one chain of several): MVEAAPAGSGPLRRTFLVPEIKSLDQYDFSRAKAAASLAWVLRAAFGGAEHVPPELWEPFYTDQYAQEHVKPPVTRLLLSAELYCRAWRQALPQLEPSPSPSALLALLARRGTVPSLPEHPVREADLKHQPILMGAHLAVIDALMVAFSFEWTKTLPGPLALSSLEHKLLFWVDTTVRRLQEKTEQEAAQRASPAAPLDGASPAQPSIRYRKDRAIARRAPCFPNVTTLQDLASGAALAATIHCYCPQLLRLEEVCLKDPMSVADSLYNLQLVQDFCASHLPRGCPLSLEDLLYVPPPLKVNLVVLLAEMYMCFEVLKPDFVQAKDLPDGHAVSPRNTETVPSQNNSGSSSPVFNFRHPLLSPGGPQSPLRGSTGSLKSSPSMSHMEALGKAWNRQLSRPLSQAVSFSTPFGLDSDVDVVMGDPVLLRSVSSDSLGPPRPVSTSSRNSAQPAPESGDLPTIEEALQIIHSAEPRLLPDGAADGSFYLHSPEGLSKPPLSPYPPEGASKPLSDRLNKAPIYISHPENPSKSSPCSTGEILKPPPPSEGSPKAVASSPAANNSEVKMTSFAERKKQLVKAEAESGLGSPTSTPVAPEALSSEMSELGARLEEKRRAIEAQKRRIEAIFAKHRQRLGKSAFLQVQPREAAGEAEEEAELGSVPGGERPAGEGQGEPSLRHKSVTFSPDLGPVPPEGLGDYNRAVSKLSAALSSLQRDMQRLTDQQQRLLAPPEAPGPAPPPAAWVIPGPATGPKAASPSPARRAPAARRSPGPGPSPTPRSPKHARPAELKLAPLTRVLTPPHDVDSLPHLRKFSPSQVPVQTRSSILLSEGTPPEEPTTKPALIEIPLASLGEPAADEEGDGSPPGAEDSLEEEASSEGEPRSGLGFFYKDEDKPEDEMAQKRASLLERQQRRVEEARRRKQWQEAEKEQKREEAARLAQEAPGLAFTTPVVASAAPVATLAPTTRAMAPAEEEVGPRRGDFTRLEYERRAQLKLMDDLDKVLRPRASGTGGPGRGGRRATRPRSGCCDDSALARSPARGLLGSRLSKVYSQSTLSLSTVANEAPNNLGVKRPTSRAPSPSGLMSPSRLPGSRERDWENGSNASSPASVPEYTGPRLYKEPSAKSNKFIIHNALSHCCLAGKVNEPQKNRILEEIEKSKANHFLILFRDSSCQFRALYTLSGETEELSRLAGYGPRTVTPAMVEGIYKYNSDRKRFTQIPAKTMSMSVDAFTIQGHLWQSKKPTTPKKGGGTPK

Kd: 0.147 µM
Substance: CKK dimer (mRFP1-FKBP-CKK and mEGFP-FRB-CKK with rapamycin) (from UniProt Q80VC9 1112-1246; Q80VC9 1112-1246) (complex)
